The values below come from patent US20130035256A1, “Chimeric Polypeptides Useful in Proximal and Dynamic High-Throughput Screening Methods” (ADDEX PHARMA SA, priority 2010, published 2013).

Series [1] concerns the target T1, A2AR-RGL (human A2A receptor) (Homo sapiens, UniProt P29274).
T1 construct: ID; NOs; expressed in transfected cells; host or cells: HEK cells, transient
Put plainly: BRET assay, HEK cells transiently co-transfected with A2AR-RGL and a Gγ construct. Set-up: key to the marks not given beside the values. The format is cell-based. Conditions: cells coexpressing A2AR-RGL and the Gγ construct, exposed to Adenosine. (In BRET a luciferase serves as donor, and the signal depends on an acceptor being close.)

A further series has as its target T2, GHSR-RLG (hGHSR) (Homo sapiens, UniProt Q92847).
T2 construct: 37; hGHSR; RLG; Gαq; 90, 91; FP-Gγ9; 3, 4; 13; expressed in transfected cells; host or cells: HEK cells, transient
Put plainly: BRET assay, HEK cells transiently co-transfected with GHSR-RLG and a Gγ construct. The format is cell-based. More on the design: key to the marks not given beside the values. As to conditions: cells coexpressing GHSR-RLG and the Gγ construct, exposed to Ghrelin.

Series [2] deals with T3, GLP1R-L-G (human GLP-1 receptor) (Homo sapiens, UniProt P43220).
T3 construct: ID; expressed in transfected cells; host or cells: HEK cells, transient
Put plainly: BRET assay, HEK cells transiently co-transfected with GLP1R-L-G and a Gγ construct. As to conditions: cells coexpressing GLP1R-L-G and the Gγ construct, exposed to GLP-1. The format is cell-based.

The target of series [3] is T4, M1R-GLG3 (human M1 receptor) (Homo sapiens, UniProt P11229).
T4 construct: 35; hM1R; RGLG-3; Gαq; 86, 87; FP-Gγ9; 3, 4; 11A, 11B; expressed in transfected cells; host or cells: HEK cells, transient
T4 sequence (P11229 with tags, fused parts or gaps): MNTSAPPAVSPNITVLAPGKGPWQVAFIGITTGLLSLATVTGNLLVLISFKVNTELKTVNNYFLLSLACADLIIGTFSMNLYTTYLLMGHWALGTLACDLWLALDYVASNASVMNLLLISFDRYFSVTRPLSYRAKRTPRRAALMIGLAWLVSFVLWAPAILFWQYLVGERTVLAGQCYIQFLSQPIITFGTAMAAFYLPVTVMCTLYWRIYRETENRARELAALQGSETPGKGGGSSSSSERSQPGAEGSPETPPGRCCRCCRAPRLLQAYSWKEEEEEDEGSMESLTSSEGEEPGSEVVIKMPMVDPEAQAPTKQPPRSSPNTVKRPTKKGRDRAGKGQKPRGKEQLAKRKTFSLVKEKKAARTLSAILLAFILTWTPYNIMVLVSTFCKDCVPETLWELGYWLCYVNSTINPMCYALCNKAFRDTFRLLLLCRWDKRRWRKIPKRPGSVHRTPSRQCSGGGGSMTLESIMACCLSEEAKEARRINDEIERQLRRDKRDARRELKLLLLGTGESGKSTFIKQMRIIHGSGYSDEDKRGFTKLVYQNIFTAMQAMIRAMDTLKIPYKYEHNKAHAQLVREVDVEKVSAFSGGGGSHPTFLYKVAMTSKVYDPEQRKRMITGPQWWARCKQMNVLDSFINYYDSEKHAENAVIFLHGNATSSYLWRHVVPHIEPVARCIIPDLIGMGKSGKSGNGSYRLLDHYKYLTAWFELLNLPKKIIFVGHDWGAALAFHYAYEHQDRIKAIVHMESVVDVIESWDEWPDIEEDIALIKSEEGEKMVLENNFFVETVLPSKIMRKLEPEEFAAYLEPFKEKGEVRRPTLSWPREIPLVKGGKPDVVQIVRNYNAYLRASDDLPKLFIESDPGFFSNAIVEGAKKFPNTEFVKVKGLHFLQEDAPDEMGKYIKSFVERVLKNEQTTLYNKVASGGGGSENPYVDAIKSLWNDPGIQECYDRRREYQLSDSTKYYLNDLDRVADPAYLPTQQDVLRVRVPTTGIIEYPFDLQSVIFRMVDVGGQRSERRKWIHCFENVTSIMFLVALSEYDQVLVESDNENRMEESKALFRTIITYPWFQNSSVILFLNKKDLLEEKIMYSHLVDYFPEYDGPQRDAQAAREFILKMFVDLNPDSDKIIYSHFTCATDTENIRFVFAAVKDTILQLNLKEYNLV
As to the kind of experiment: BRET assay, HEK cells transiently co-transfected with M1R-GLG3 and a Gγ construct. More on the design: key to the marks not given beside the values. The format is cell-based. Conditions: cells coexpressing M1R-GLG3 and the Gγ construct, exposed to Acetylcholin.

Series [4] concerns the target T5, GIPR-L-G (human GIP receptor) (Homo sapiens, UniProt P48546).
T5 construct: ID; NOs; expressed in transfected cells; host or cells: HEK cells, transient
Put plainly: BRET assay, HEK cells transiently co-transfected with GIPR-L-G and a Gγ construct. Conditions: cells coexpressing GIPR-L-G and the Gγ construct, exposed to GIP. The format is cell-based.

For series [5], the target named is T6, GCGR-RLG (glucagon receptor) (Homo sapiens, UniProt P47871).
T6 construct: 39; GCGR; RLG; Gαs; 94, 95; FP-Gγ9; 3, 4; 15; expressed in transfected cells; host or cells: HEK cells, transient
As to the kind of experiment: BRET assay, HEK cells transiently co-transfected with GCGR-RLG and a Gγ construct. As to conditions: cells coexpressing GCGR-RLG and the Gγ construct, exposed to Glucagon. Set-up: key to the marks not given beside the values. The format is cell-based.

Series [6] has as its target T7, M4R-GLG2 (human muscarinic acetylcholine receptor M4) (Homo sapiens, UniProt P08173).
T7 construct: ID; NOs; expressed in transfected cells; host or cells: HEK cells, transient
Put plainly: BRET assay, HEK cells transiently co-transfected with M4R-GLG2 and a Gγ construct. In kind it is cell-based. Set-up: key to the marks not given beside the values. As to conditions: cells coexpressing M4R-GLG2 and the Gγ construct, exposed to ACh.

For a further series, the target named is T8, chimeric M4R (RGLG-2) (Homo sapiens, UniProt P08173).
T8 construct: ID; NOs; expressed in transfected cells
Put plainly: BRET assay of the invention, cells co-expressing chimeric M4R (RGLG-2) and FP-Gγ9. In kind it is cell-based. As to conditions: cells incubated over night with 100 ng/ml PTX. The method, then: The same cells as described for FIG. 10 A were used. […] The decrease of the signal below baseline in the PTX-treated condition confirms a constitutive activity that has been described for the M4R. […]
A typical experiment has the following sequence.
The assay of the present invention was compared with a state of the art calcium based assay. […] In calcium-based assay, a calcium flux is measured in cells co-expressing recombinant M4R and modified Gαq. In the assay in accordance with the present invention, BRET in measured in cells co-expressing a chimeric M4R according to RGLG-2 (construct and cell-line from FIG. 2C, Table 6) and FP-Gγ9 (as described in FIG. 10A). The data represent mean values and they are normalized to the maximal effect of the orthosteric agonist after the subtraction of the basal values.

Series [7] addresses human M1 receptor (M1R) RGLG-3 (Homo sapiens, UniProt P11229).
Method: Cells co-express a construct comprising a human M1 receptor (M1R) fused to a split Gαq protein harboring a luminescent protein (construct RGLG-3, FIG. 2C, Table 6) and the FP-Gγ9 construct (as above).
5 or 10 minutes after the addition of coelenterazine H to the cells, the read plate is placed in the FLIPR tetra and the measurement begins.
A second plate is a compound plate, containing a mix of an agonist at its EC20 or EC80 and candidate agents to be tested if the protocol run on the FLIPR tetra is a one-addition (or co-addition) protocol (as in FIGS. 3A, 3B, 4, 5A, 6, 7B, 7C, 10B, 10C, 11B, 13, 14, 19 and 20). Alternatively, a two-addition protocol can be run on the FLIPR tetra, containing two compound plates, of which the first one usually contains different candidate agents and the second one an agonist at its EC20 or EC80 (as in FIGS. 5B, 5C, 7A, 9, 10A, 11A, 12, 15, 16, and 18). […]
The camera is adjusted in such a way that the gain is set to a maximum of 28,000× and the shutters are opened 100%. […] The read interval (emission filter 1, emission filter 2) is adjusted to the minimal value that results from the addition of the two exposure times (=2×0.1 to 3 seconds) plus the time needed to move the filters from position 1 to position 2 (0.3 sec), resulting in a maximal read frequency of 0.5 seconds (2 Hz). […]
The target in series [8] is T9, M4R RGLG-2 with Gαo C351S (Homo sapiens, UniProt P08173+P09471, C351S).
T9 construct: ID; NOs; expressed in transfected cells
T9 sequence (P08173+P09471 fused P09471:C351S): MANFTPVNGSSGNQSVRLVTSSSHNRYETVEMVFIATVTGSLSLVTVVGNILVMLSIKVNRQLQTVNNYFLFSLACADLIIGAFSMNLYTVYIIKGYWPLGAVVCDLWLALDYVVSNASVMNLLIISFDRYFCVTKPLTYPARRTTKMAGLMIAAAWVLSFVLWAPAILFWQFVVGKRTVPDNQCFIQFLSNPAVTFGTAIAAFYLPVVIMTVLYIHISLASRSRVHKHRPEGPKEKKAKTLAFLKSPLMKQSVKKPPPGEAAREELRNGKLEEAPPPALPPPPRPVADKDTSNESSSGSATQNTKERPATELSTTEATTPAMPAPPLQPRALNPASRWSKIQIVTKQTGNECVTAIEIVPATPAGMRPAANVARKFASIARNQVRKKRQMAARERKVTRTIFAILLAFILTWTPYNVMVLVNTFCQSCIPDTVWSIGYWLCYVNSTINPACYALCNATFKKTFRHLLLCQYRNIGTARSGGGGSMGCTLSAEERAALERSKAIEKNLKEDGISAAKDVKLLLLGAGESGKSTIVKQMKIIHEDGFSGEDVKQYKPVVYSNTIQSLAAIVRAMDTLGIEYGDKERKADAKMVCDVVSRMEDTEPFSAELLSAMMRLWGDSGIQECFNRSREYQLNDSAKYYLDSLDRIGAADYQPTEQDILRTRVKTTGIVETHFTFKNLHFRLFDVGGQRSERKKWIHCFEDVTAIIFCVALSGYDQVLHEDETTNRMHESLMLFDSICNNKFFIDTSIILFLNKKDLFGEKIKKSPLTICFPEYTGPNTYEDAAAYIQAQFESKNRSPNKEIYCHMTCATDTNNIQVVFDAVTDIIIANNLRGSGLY
As to the kind of experiment: BRET assay, chimeric M4R with PTX-insensitive mutant (C351S) of Gαo in the RGLG-2 fusion construct. In kind it is cell-based. Conditions: same conditions as FIG. 10B. The method, then:
Cells lines were prepared as described above (Examples 13-34).

The target of series [9] is T10, hM4-R-Gαo^1-91-Luciferase-Gαo^92-354 fusion protein (type RGLG-2).
T10 chain: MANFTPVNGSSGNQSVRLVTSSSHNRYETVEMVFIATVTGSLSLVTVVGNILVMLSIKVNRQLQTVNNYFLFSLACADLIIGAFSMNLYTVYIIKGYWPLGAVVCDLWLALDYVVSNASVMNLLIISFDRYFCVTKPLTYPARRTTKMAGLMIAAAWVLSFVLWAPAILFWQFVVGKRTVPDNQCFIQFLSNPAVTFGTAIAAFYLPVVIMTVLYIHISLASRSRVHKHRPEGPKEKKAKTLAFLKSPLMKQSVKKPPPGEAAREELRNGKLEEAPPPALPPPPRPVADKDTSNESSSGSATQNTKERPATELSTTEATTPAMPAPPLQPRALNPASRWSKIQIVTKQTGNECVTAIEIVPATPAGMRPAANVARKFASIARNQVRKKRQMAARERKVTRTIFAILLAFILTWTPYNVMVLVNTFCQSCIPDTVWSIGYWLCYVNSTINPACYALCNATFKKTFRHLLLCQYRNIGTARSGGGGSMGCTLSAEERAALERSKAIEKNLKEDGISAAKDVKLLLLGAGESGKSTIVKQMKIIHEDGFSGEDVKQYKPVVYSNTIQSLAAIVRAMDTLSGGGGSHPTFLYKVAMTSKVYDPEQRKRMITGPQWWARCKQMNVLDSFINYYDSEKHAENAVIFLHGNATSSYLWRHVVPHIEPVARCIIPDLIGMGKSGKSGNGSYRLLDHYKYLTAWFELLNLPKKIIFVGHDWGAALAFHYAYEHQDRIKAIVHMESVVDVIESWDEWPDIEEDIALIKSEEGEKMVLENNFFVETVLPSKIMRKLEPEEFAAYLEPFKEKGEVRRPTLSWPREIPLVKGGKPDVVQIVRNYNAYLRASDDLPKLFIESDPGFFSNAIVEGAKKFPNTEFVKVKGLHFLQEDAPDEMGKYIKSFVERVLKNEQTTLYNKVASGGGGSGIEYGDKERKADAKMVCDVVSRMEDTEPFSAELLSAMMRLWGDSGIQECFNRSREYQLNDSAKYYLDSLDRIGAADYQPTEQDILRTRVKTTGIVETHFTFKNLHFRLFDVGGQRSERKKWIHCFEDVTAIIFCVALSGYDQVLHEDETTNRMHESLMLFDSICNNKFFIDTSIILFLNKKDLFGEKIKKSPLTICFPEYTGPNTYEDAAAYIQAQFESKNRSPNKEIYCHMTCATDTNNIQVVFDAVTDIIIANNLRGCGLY

Series [10] has as its target hM4-R RGLG-2 fusion construct with the PTX-insensitive mutant (C351S) of Gαo.
In series [11] the target is T11, hM1R fused to split Gαq harbouring a luminescent protein (type RGLG-3).
T11 chain: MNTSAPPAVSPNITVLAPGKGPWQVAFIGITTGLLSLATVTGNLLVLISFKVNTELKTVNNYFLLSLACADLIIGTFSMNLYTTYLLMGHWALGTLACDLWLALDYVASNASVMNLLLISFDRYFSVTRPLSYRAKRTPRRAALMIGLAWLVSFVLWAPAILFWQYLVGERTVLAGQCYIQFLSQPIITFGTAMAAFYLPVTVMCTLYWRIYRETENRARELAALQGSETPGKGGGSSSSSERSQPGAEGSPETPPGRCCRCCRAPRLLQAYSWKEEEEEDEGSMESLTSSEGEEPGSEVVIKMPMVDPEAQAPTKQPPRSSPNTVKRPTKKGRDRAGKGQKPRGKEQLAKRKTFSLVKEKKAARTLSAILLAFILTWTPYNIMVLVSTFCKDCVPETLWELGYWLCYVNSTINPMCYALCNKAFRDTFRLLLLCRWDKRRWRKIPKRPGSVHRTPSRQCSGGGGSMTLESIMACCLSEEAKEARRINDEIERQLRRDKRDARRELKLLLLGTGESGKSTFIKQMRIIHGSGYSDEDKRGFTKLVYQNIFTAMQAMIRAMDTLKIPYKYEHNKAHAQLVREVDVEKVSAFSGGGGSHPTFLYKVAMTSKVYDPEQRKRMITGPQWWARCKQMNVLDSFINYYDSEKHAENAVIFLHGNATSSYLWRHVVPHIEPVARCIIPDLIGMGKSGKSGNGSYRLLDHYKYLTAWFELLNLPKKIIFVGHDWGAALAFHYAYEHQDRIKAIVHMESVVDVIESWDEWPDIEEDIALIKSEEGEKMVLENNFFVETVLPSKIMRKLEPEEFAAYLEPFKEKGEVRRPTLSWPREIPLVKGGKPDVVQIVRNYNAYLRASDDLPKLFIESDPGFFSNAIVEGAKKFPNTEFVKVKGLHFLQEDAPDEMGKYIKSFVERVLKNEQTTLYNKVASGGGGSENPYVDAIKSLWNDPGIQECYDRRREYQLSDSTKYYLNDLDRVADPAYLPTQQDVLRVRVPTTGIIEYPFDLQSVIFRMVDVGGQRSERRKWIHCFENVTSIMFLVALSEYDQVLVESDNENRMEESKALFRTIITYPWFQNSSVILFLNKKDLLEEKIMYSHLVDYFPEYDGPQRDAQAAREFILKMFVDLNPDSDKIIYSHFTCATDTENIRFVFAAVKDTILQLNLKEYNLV

T2 sequence (Q92847 with tags, fused parts or gaps): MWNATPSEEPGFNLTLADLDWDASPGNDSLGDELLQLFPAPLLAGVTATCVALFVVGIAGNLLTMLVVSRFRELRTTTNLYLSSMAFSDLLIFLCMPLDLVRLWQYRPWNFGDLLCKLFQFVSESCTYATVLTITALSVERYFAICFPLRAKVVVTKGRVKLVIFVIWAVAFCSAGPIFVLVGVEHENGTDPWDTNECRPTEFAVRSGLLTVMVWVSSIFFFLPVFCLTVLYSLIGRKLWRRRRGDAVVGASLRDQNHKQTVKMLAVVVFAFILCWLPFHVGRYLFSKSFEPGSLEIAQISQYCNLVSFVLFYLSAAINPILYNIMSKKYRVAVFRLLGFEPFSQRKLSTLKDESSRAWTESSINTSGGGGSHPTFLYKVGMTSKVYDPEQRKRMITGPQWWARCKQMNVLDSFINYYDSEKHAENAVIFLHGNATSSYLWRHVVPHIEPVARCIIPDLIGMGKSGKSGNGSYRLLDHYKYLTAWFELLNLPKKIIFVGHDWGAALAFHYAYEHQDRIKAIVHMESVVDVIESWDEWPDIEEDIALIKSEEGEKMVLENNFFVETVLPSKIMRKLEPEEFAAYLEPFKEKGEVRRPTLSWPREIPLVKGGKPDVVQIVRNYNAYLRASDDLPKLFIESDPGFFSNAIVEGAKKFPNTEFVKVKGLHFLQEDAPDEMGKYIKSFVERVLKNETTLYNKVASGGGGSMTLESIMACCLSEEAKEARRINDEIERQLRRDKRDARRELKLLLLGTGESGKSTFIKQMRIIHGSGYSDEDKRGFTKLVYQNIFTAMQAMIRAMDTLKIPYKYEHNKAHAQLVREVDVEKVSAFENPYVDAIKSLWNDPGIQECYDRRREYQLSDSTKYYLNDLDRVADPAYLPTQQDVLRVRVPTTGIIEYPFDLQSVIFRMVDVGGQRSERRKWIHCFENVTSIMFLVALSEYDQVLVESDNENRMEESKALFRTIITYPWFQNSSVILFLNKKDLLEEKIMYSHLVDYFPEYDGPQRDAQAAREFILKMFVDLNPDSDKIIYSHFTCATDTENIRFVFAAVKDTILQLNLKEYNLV
T1 sequence (P29274 with tags, fused parts or gaps): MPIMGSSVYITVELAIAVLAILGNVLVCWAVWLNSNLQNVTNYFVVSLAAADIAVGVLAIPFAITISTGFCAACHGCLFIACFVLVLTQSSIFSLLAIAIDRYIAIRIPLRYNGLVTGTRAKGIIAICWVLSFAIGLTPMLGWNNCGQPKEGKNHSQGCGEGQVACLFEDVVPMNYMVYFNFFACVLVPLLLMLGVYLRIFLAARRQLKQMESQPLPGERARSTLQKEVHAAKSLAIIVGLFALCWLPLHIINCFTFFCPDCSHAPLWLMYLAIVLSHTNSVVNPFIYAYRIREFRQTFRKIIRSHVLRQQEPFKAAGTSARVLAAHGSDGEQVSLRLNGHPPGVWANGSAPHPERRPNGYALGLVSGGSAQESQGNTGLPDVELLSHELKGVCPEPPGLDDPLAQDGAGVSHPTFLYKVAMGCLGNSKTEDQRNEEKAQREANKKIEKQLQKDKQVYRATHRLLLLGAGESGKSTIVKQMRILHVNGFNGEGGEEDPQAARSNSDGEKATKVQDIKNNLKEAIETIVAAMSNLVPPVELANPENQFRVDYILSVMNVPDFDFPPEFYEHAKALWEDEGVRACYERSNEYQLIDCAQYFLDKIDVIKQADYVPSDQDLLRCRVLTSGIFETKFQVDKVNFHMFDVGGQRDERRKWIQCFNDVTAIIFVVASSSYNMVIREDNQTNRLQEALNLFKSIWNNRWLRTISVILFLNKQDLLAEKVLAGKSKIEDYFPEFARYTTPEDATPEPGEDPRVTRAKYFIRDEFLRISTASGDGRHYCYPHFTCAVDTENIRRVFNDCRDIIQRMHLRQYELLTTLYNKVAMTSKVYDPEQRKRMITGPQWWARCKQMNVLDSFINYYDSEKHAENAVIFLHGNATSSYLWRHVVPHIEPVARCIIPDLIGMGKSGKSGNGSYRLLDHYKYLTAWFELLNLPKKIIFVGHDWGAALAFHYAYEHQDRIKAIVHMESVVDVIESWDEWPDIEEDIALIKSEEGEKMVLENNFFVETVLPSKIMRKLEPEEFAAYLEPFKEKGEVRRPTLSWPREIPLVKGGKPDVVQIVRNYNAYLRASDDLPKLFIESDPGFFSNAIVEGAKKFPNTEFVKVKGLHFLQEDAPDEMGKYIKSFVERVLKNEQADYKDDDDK
T5 sequence (P48546 with tags, fused parts or gaps): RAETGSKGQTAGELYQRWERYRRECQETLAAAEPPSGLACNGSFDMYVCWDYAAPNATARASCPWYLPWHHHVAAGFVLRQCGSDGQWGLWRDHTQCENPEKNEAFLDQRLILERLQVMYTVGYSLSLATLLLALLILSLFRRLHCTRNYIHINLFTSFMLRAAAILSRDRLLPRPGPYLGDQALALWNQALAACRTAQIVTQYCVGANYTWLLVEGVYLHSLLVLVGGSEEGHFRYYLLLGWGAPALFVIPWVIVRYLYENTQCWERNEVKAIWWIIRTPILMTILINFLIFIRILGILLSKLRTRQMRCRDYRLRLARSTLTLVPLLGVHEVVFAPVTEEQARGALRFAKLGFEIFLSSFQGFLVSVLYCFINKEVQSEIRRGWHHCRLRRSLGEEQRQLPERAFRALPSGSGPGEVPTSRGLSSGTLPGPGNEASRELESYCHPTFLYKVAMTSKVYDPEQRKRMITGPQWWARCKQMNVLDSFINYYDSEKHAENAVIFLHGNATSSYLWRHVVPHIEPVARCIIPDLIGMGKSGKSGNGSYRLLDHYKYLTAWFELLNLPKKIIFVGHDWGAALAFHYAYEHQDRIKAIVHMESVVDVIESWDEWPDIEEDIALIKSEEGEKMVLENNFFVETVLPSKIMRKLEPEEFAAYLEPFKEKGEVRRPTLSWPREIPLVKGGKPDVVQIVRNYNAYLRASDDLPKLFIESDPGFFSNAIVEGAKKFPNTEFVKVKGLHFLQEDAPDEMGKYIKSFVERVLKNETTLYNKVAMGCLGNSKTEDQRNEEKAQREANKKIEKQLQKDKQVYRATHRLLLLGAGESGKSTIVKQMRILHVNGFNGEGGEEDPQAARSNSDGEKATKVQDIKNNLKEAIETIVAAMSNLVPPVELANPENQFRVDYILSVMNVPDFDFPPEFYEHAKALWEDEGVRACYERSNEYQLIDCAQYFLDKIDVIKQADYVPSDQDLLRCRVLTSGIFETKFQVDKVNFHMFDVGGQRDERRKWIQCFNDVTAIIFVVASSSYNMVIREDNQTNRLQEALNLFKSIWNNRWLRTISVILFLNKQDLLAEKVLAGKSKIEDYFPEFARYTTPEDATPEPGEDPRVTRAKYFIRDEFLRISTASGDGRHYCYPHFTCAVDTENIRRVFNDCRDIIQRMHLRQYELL

“FP-Gγ9: fusion protein of yellow fluorescent protein YPet and human G-protein gamma9, SEQ. ID. NOs. 3, 4”: the HTS compat. result (in series [1]; with GHSR-RLG (hGHSR); in series [2]; in series [3]; in [4]; in series [5]) was “++” each time. In [6], the HTS compat. result is on record as “++”.

PTX: the “effect on BRET signal changes in response to Ach” value with chimeric M4R (RGLG-2) is reported as “effectively blocks the BRET signal changes”; in [7], “no effect on the BRET signal changes”. The “effect on BRET signal changes in response to Ach, C351S Gαo mutant” value in [8] is “rescued by the C351S substitution”.

B1: Bordetella pertussis toxin (protein)
chain: DDPPATVYRYDSRPPEDVFQNGFTAWGNNDNVLDHLTGRSCQVGSSNSAFVSTSSSRRYTEVYLEHRMQEAVEAERAGRGTGHFIGYIYEVRADNNFYGAASSYFEYVDTYGDNAGRILAGALATYQSEYLAHRRIPPENIRRVTRVYHNGITGETTTTEYSNARYVSQQTRANPNPYTSRRSVASIVGTLVRMAPVIGACMARQAESSEAMAAWSERAGEAMVLVYYESIAYSF
Take B1: the “BRET signal change in response to acetylcholine after overnight incubation with 100 ng/ml PTX” value in series [9] was “PTX effectively blocks the BRET signal changes compared to the non-PTX treated condition”. In addition, the results for the “BRET signal change in response to acetylcholine after overnight incubation with PTX” value in [10] and in series [11] were “The Gαo-inhibiting effects of PTX are rescued by the C351S substitution” and “shows no effect on the BRET signal changes obtained in response to Ach”, respectively.
